Two sequences from article PMC9247205 can be followed below.

In this series the target is GST-SF1KQ (EhSF1 KH-QUA2 domain) (Entamoeba histolytica) (UniProt C4M4V3). Nature of the series: EMSA. As to conditions: EMSA: 50 ug protein (Fig 4), 200 fmol probe, 20 min (+10 min with U2 snRNA); binding buffer as in Ortuno-Pineda 2012, not given; UV crosslinking at pH 7.6 or …. (In general: A gel shift assay detects complexes by their altered migration in electrophoresis.)

With “UAUACUAACAA [yeast canonical BS probe (C+)]”, the binding signal amounted to 50%. The sequence “AACUUUUAUUU [E. histolytica RabX13 intron BS probe (P+)]” displayed a binding signal of 50%.
